Earlier results in article PMC4041429.

Biological target: β clamp (Escherichia coli) (UniProt P0A988)

- Kd: < 50 nM
Substance: β clamp (from UniProt P0A988)
